Laboratory results as given in article PMC5767185, “Arabidopsis G-Protein β Subunit AGB1 Interacts with BES1 to Regulate Brassinosteroid Signaling and Cell Elongation” (Frontiers in Plant Science, 2017).

Molecular target: T1, His-AGB1 (Arabidopsis, UniProt P49177 1-377)
T1 construct: AGB1 of Arabidopsis, full length, cloned into pCOLD-TF; as the empty pCOLD-TF vector gives His-TF, the fusion probably carries trigger factor between the His tag and AGB1 (surmised); also called His-tagged AGB1; source: E. coli (Rosetta), pCOLD-TF, purified; not shown: His, N-terminal, kept
T1 sequence (looked up): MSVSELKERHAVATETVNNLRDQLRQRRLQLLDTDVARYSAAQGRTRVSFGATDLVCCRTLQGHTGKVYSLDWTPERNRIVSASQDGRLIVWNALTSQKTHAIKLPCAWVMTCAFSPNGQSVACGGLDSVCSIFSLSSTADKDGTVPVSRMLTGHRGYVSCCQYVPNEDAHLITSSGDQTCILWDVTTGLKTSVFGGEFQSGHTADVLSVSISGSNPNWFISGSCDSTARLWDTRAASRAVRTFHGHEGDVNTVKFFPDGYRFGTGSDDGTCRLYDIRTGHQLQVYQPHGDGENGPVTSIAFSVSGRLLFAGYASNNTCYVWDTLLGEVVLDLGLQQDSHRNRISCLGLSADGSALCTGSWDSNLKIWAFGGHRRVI
Experiment: pull-down; GST-BES1 held on glutathione beads (MagneGST), His-AGB1 or His-TF added, lysis buffer without EDTA, 2 h at 4°C; prey detected with anti-His antibody
Conditions: both partners purified

binding result: binds
B1: GST-BES1 (natural protein, Arabidopsis, UniProt Q9LN63 1-335, looked up)
chain: MTSDGATSTSAAAAAAAMATRRKPSWRERENNRRRERRRRAVAAKIYTGLRAQGNYNLPKHCDNNEVLKALCSEAGWVVEEDGTTYRKGHKPLPGDMAGSSSRATPYSSHNQSPLSSTFDSPILSYQVSPSSSSFPSPSRVGDPHNISTIFPFLRNGGIPSSLPPLRISNSAPVTPPVSSPTSRNPKPLPTWESFTKQSMSMAAKQSMTSLNYPFYAVSAPASPTHHRQFHAPATIPECDESDSSTVDSGHWISFQKFAQQQPFSASMVPTSPTFNLVKPAPQQLSPNTAAIQEIGQSSEFKFENSQVKPWEGERIHDVAMEDLELTLGNGKAHS
notes: BES1 of Arabidopsis, full length, cloned into pGEX-4T-1; also called GST-tagged BES1; source: E. coli (Rosetta), pGEX-4T-1, purified; not shown: GST, N-terminal, kept
